Assay results from patent US20030228309A1 (published 2003).

Assays:
[1] = molecular target: T1, Biotinylated TRAIL (AM100200-Peprotech) (Homo sapiens (Human), UniProt P50591 114-281, biotinylated (sites not given)); assay: competition ELISA, soluble TR4 (TR4-Fc positive control) competes with plate-captured TR4-Fc for biotinylated TRAIL; assay 2
Procedure: (§1) Goat anti-human Fc was diluted to 0.1 micrograms/ml in coating buffer. The Immulon 4 microplate was coated with 100 microliters per well of the Goat anti-human Fc solution and incubated overnight at 4° C. The coating solution was decanted from the plate, and blocking solution was dispensed at 200 microliters per well. The plate was incubated at room temperature for 1 hour. After the 1 hour incubation period, the blocking solution was decanted from the plate and 1 microgram/mL of TR4-Fc was dispensed at 100 microliters/well and incubated for 2 hours at room temperature. After the incubation, the plate was washed five times manually using a Wheaton manifold.
(§2) Hybridoma supernatants were (previously) prepared in a low binding dilution plate using diluent. The supernatants were prepared in duplicate and were diluted from the stock concentration with 2.5 fold dilutions for the 7 subsequent wells. If a purified form of the antibody was available, the starting concentration was 5 micrograms/mL. The positive control (TR4-Fc) was diluted from 5 micrograms/mL. 100 microliters was transferred into the ELISA plate and pre-incubated for 30 minutes at room temperature. 20 microliters of biotinylated TRAIL was added at 5 micrograms/mL to the 100 gL of the supernatant and mixed. The combined 120 microliters incubated for 2 hours at RT. […]

[2] = molecular target: T1, Biotinylated TRAIL (AM100200-Peprotech); assay: competition ELISA, soluble TR4 (TR4-Fc positive control) competes with plate-captured TR4-Fc for biotinylated TRAIL; assay 1
Procedure: as §1, §2

T1 sequence (P50591 114-281 limits assumed): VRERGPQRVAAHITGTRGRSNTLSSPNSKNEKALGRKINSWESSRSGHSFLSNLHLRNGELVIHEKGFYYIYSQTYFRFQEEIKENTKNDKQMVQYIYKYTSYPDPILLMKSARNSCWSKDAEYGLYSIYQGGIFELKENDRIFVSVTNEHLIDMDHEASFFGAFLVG

IC50 [1]: 0.284 µg/mL
IC50 [2]: 0.491 µg/mL
B1: TR4-Fc fusion protein (Fc fusion)
chain: ATIKLHDQSIGTQQWEHSPLGELCPPGSHRSERPGACNRCTEGVGYTNASNNLFACLPCTACKSDEEERSPCTTTRNTACQCKPGTFRNDNSAEMCRKCSTGCPRGMVKVKDCTPWSDIECVHKESGNGHNI
notes: also called TR4 (in the form of Fc fusion protein); not shown: Fc region
